Patent US20060193821, “Aptamers to the human IL-12 cytokine family and their use as autoimmune disease therapeutics” (published 2006)

How the values were obtained:
[1] = biological target: T1, IL-23 (human, p19/p40 heterodimer) (Homo sapiens, UniProt Q9NPF7;P29460 SEQ:20-189,SEQ:23-328); experiment: cell_activity; TransAM STAT3, PHA blasts; Table 35 gives 1 uM for full length; settings: tags: R&D Systems
Procedure: (§1) In summary, the cell-based assay was conducted by isolating the peripheral blood mononuclear cells (PBMCs) from whole blood using a Histopaque gradient (Sigma, St. Louis, Mo.). The PBMCs were cultured for 3 to 5 days at 37° C./5% CO₂ in Peripheral Blood Medium (Sigma) which contains PHA, supplemented with IL-2 (100 units/mL) (R&D Systems, Minneapolis, Minn.), to generate PHA Blasts. To test IL-23 aptamers, the PHA Blasts were washed twice with 1×PBS, then serum starved for four hours in RPMI, 0.20% FBS. After serum starvation, approximately 2 million cells were aliquotted into appropriately labeled eppendorf tubes. hIL-23 at a final constant concentration of 3 ng/mL (R&D Systems, Minneapolis, Minn.) was combined with a dilution series of various IL-23 aptamers as described in Example 1, and the cytokine/aptamer mixture was added to the aliquotted cells in a final volume of 100 μl and incubated at 37° C. for 10-12 minutes. The incubation reaction was stopped by adding 1 mL of ice-cold PBS with 1.5 mM Na₃VO₄. Cell lysates were made using the lysis buffer provided by the TransAM™ STAT 3 assay following the manufacturer's instructions. FIG. 20 depicts a flow summary of the protocol used for the cell based assay.
(§2) Full length clones from the rRfY selection described in Example 1A, and select minimized rRfY clones that were described in Example 2A. […]

[2] = biological target: T1, IL-23 (human, p19/p40 heterodimer); experiment: competition; direct +tRNA 69 nM; settings: tags: R&D Systems, carrier free
Procedure: The fraction aptamer bound vs. [IL-23] was used to calculate the KD by fitting the following equation to the data: Fraction aptamer bound=amplitude*([IL-23]/(KD+[IL-23]))+background binding.
(§3) Several of the minimized constructs from the dRmY Selection 2 were also assayed in a competition format in which cold aptamer was titrated and competed away trace ³²P ATP labeled aptamer In the competition assay, the [IL-23] was held constant, the [trace labeled aptamer] was held constant, and the [unlabeled aptamer] was varied. The KD was calculated by fitting the following equation to the data: Fraction aptamer bound=amplitude*([aptamer]/(KD+[aptamer]))+background binding.

[3] = biological target: T1, IL-23 (human, p19/p40 heterodimer); experiment: cell_activity; Pathscan pSTAT3, PHA blasts; settings: tags: R&D Systems, carrier free
Procedure: (§4) PHA Blasts were isolated and prepared as described above and treated with hIL-23 at a final constant concentration of 6 ng/mL (R&D Systems, Minneapolis, Minn.) to induce STAT3 activation, instead of using 3 ng/mL as previously described with the TransAM™ assay. Clones were screened by using a 6-point […] titration from 0 to 700 nM in 3 fold dilutions in combination with a constant IL-23 concentration of 6 ng/mL of IL-23 (R&D Systems, Minneapolis, Minn.) to induce STAT3 activation, instead of using 3 ng/mL as previously described with the TransAM™ assay. Lysates of treated cells were prepared using the buffers provided by the Pathscan kit, and the assay was run according to the manufacturer's instructions. IC₅₀s for the full length clones were calculated from the dose response curves.

[4] = biological target: T1, IL-23 (human, p19/p40 heterodimer); experiment: cell_activity; IL-23/IL-18 induced IFN-gamma, PHA blasts; settings: tags: R&D Systems, carrier free
Procedure: (§5) PHA Blasts were isolated and prepared as described above. Once isolated, PHA Blasts were cultured for 4 days before use (with no re-feeding the night before use). After culturing for 4 days, an appropriate number of cells (enough for 0.5×10^6 cells per well) were collected, pelleted by centrifugation and washed with RPMI 1640 and 0.2% FBS (repeated twice). These cells were then serum starved by placement into 2, 150 mm sterile culture dishes with 25 mL of RPMI 1640-0.2% FBS each for 2-3 hours. Following serum starvation, cells were plated in a 96 well microtiter plate at a density of 0.5×10^6 cells per 200 μl of serum starved media.
(§6) IL-12/IL-18 or IL-23/IL-18 was used to induce IFN-γ production in PHA Blasts as follows. 10 μl of IL-23 (R&D Systems) at a concentration of 60 ng/mL (or 10 μl of IL-12 at a concentration of 20 ng/mL), and 10 μl of IL-18 (MBL) at a concentration of 200 ng/mL were added to the appropriate wells. […] Following incubation, 200 μl of supernatant was removed from each well and either flash frozen at −80° C., or quantified immediately for IFN-γ. An ELISA kit was used to quantify the IL-23/IL-18 and IL-12/IL-18 induced IFN-γ in PHA Blasts according to the manufacturer's recommended protocol (Recombinant human IFN-γ Quantikine Kit, R&D Systems, Minneapolis, Minn.). The colorimetric readout was quantified using a 96 well plate reader and absorbance values were graphed.

[5] = biological target: IL-12 (human, p35/p40 heterodimer) (Homo sapiens, UniProt P29459;P29460 SEQ:57-253,SEQ:23-328); experiment: cell_activity; IL-12/IL-18 induced IFN-gamma, PHA blasts
Chain of IL-12 (human, p35/p40 heterodimer) (P29459 23-219, chain 1 of 2): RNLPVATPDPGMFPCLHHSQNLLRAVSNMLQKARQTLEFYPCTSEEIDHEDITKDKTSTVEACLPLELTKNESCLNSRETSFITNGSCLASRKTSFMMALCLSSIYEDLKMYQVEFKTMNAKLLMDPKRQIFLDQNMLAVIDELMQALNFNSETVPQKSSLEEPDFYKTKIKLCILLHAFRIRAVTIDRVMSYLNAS
Chain of IL-12 (human, p35/p40 heterodimer) (P29460 23-328, chain 2 of 2): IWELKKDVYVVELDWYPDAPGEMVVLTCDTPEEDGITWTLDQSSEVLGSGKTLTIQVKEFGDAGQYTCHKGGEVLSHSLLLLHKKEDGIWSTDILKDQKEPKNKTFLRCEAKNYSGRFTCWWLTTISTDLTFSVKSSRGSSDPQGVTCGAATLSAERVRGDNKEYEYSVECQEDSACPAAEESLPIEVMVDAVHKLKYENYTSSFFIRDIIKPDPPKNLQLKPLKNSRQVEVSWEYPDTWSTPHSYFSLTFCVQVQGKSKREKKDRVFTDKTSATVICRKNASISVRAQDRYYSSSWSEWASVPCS
Procedure: as §5, §6

[6] = biological target: T1, IL-23 (human, p19/p40 heterodimer); experiment: filter; -tRNA; competition 8 nM; settings: tags: R&D Systems, carrier free
Procedure: These molecules were gel purified and assayed for IL-23 binding using the dot blot assay as described above and compared to each other and to the parent molecule, ARC979. An 8 point IL-23 titration (0 nM to 300 nM, 3 fold serial dilutions) was used in the binding assay.

[7] = biological target: T1, IL-23 (human, p19/p40 heterodimer); experiment: cell_activity; Pathscan, +/-1; TransAM 40 nM; settings: tags: R&D Systems, carrier free; G4
Procedure: as §4

[8] = biological target: T1, IL-23 (human, p19/p40 heterodimer); experiment: competition; direct +tRNA 117 nM; settings: tags: R&D Systems, carrier free
Procedure: as §3
Table 25 below summarizes the minimized sequences and the parent clone from which they were derived, and Table 26 summarizes the binding characterization from direct binding assays (+/−tRNA) and competition binding assays for the minimized constructs tested.

[9] = biological target: T1, IL-23 (human, p19/p40 heterodimer); experiment: cell_activity; TransAM STAT3, PHA blasts, 3 ng/mL hIL-23; settings: tags: R&D Systems
Procedure: as §1, §2

[10] = biological target: T1, IL-23 (human, p19/p40 heterodimer); experiment: cell_activity; TransAM STAT3, PHA blasts; Table 35 gives 700 nM for full length; settings: tags: R&D Systems
Procedure: as §1, §2

T1 sequence (Q9NPF7 20-189, chain 1 of 2): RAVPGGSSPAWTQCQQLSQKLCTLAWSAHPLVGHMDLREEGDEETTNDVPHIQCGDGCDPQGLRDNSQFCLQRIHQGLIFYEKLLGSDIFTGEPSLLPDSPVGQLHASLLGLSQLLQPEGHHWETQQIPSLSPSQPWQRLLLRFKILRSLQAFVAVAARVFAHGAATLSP
T1 sequence (P29460 23-328, chain 2 of 2): as the sequence (P29460 23-328, chain 2 of 2) above

B1: AMX84-A10 (ssRNA)
RNA: GGGAAAAGCGAAUCAUACACAAGAAGUUUUUUGUGCUCUGAGUACUCAGCGUCCGUAAGGGAUAUGCUCCGCCAGAGACCAACCGAGAA
modifications: 2'-F C and U, 2'-OH A and G
IC50 [1]: 400 nM

GGCGGUACGGGGAGUGUGGGUUGGGGCCGG (mixed, deoxy A,G; 2'-OMe C,U) [ARC794]
Kd [2]: 14 nM

B2: ARC1624 (mixed)
RNA: ACAGGCAAGUAAUUGGGGAGUGCGGGCGGGGUGU
modifications: 2'-OMe C,U and G16,G17,G24,G25,G30,G31; other A,G deoxy; PS 25-26,27-28,28-29; 3'-idT [2'-OMe C2,C6,U10,U13,U14,G16,G17,U21,C23,G24,G25,C27,G30,G31,U32,U34; other A,G deoxy; PS 25-26,27-28,28-29 (N = PS linkage, left out); 3'-inverted dT 35]
IC50 [3]: 2 nM

ACAGGCAAGUAAUUGGGGAGUGCGGGCGGGGUGU (mixed, ARC1623 with 5' 40 kDa PEG; 3'-idT) [ARC1988]
IC50 [4]: ~4 nM
IC50 [5]: ~122 nM

B3: ARC1163 (mixed)
RNA: ACAGGCAAGUAAUUGGGGAGUGCGGGCGGGGUGU
modifications: deoxy A,G; 2'-OMe C,U; PS 21-22 [PS between 21-22; 2'-OMe C,U at 2,6,10,13,14,21,23,27,32,34; deoxy A,G at all other positions]
Kd [6]: 49 nM

ACAGGCAAGUAAUUGGGGAGUGCGGGCGGGGUGU (mixed, deoxy A,G; 2'-OMe C,U) [ARC979]
IC50 [7]: 6 nM

GGCAAGUAAUUGGGGAGUGCGGGCGGGG (mixed, deoxy A,G; 2'-OMe C,U) [ARC792]
Kd [8]: 11 nM

B4: AMX84-H12 family clone AMX91-H12 (ssRNA)
RNA: GGGAAAAGCGAAUCAUACACAAGACGUGUGCUUUAUGUAAACCAUAACGUUCCAUAAGGAAUAUGCUCCGCCAGAGACCAACCGAGAA
modifications: 2'-F C and U, 2'-OH A and G
IC50 [9]: 350 nM

B5: AMX84-B10 (ssRNA)
RNA: GGGAAAAGCGAAUCAUACACAAGAAGUGCUUCAUGCGGCAAACUGCAUGACGUCGAAUAGAUAUGCUCCGCCAGAGACCAACCGAGAA
modifications: 2'-F C and U, 2'-OH A and G
IC50 [10]: > 1000 nM
